Like-named read-outs stand apart in the source and are kept apart here.
Experiments:
[1] = target: Id (pBIND-Id, fusion with the DNA-binding domain of yeast gal4); experiment: two-hybrid
[2] = target: Id (pBIND-Id, fusion with the DNA-binding domain of yeast gal4); experiment: two-hybrid; remark: listed apart in the source

Substance “MyoD (pACT-MyoD, fusion with the VP16 transactivation domain of herpes simplex virus) (natural protein)” has a luciferase reporter activation over basal (two-hybrid) [1] of 10 fold and a luciferase reporter activation over basal (two-hybrid) [2] of 70 fold.

From publication PMC3163069
